As usually defined, the Kd is the constant that tells how readily two partners part at equilibrium. Read a high Kd as lower affinity. In general, koff refers to the rate constant with which the complex falls apart. Higher therefore signals a short-lived complex. The term kon denotes a measure of how fast the partners come together. Lower therefore signals slower complex formation.

From US20240360224A1 (ORIONIS BIOSCIENCES, published 2024) come the findings set out here.

The labels stand for the following.
B1: R1CHCL50 (wild type) (VHH)
VHH: QVQLVESGGGLVHPGGSLRLSCAASGSFSSINVMGWYRQAPGKERELVARITNLGLPNYADSVTGRFTISRDNAKNTVYLQMNSLKPEDTAVYYCYLVALKAEYWGQGTQVTVSS
notes: pHEN6C periplasmic expression with C-terminal his6 tag
B2: R1CHCL50_opt2 (E1D-A74S-K83R-Q108L-H13Q) (VHH)
VHH: DVQLVESGGGLVQPGGSLRLSCAASGSFSSINVMGWYRQAPGKERELVARITNLGLPNYADSVTGRFTISRDNSKNTVYLQMNSLRPEDTAVYYCYLVALKAEYWGQGTLVTVSS
notes: The entry already carries the named substitutions; pHEN6C, C-terminal his6 tag
B3: R1CHCL50_opt1 (E1D-A74S-K83R-Q108L) (VHH)
VHH: DVQLVESGGGLVHPGGSLRLSCAASGSFSSINVMGWYRQAPGKERELVARITNLGLPNYADSVTGRFTISRDNSKNTVYLQMNSLRPEDTAVYYCYLVALKAEYWGQGTLVTVSS
notes: as for B2
B4: R1CHCL50_opt3 (E1D-A74S-K83R-Q108L-T64K) (VHH)
VHH: DVQLVESGGGLVHPGGSLRLSCAASGSFSSINVMGWYRQAPGKERELVARITNLGLPNYADSVKGRFTISRDNSKNTVYLQMNSLRPEDTAVYYCYLVALKAEYWGQGTLVTVSS
notes: as for B2
B5: R1CHCL50_opt4 (E1D-A74S-K83R-Q108L-H13Q-T64K) (VHH)
VHH: DVQLVESGGGLVQPGGSLRLSCAASGSFSSINVMGWYRQAPGKERELVARITNLGLPNYADSVKGRFTISRDNSKNTVYLQMNSLRPEDTAVYYCYLVALKAEYWGQGTLVTVSS
notes: as for B2
B6: 2LEC 76 (VHH)
VHH: QVQLQESGGGLVQAGESLRLSCVVSGRTFSINAMGWYRQAPGKQRELVAAITNQGRLSYVDSVKGRFTISRDNAANTVYLQMNSLKPEDTAVYYCAAFQSSGIDWGQGTQVTVSS
notes: Entry includes C-terminal AAA-HA-His6 (pMECS)
B7: 3LEC 27 (VHH)
VHH: QVQLQESGGGLVQAGGSLRLSCAASVNIGTLNSMAWYREAPGKQRELVAGITGGGQITYANSVRGRFTVSRDIAKSTAYLQMNTLKPEDTAVYYCAAYDRSATPYWGQGTQVTVSS
notes: as for B6
B8: 1LEC 51 (VHH)
VHH: QVQLQESGGGLVQAGGSLRLSCAASVNIDTLNSMAWYRQAPGKQRELVAGITGSGQITYANSVRGRFTVSRDNAKSTVYLQMNTLQPEDTAVYYCAAYDRSSTPYWGQGTQVTVSS
notes: as for B6
B9: 3LEC 6 (VHH)
VHH: QVQLQESGGGLVQAGGSLRLSCVASVNIGSLNSMVWYRQSPGKQRELVAGITGSGQITYANSVRGRFTVSRDIAKSTAYLQMNTLKPEDTAVYYCAAYDRSATAYWGQGTQVTVSS
notes: as for B6
B10: 3LEC 9 (VHH)
VHH: QVQLQESGGGLVQAGGSLRVSCAASGRTLSNYAVGWWRQAPGKQREFVAAINWSSGGISYSNSAKGRFALSRDNAKNTVYLQMDSLKPEDTAVYYCAAASSVLSGTVDYWGQGTQVTVSS
notes: as for B6
B11: 3LEC 82 (VHH)
VHH: QVQLQESGGGLVQAGGSLRLSCAASGRTLSNYAVAWFRQAPGKQRELVAAIWWASGGISYANSAKGRFVLSRDNAKNTVYLQMDSLKPEDTAVYYCAAASSVLSGTADYWGQGTQVTVSS
notes: as for B6
B12: 3LEC 61 (VHH)
VHH: QVQLQESGGGLVQAGGSLRVSCAASGRTLSNYAVAWFRQAPGKQREFVAAINWSSGGISYSNAAKGRFALSRDNAKNTVYLQMDSLKPEDTAVYYCAAASSILSGTVDYWGQGTQVTVSS
notes: as for B6
B13: 3LEC 15 (VHH)
VHH: QVQLQESGGGLVQAGGSLRLSCAASGSVFSINAMGWYRQAPEKQRELVAAITTQGRTTYEDSVKGRFTISRDGAQNTVYLQMDSLKPEDTAVYYCKAWTAKDDYWGKGTQVTVSS
notes: as for B6
B14: 3LEC 94 (VHH)
VHH: QVQLQESGGGSVQAGGSLRLSCAASGRTFSSYAMAWFRQAPGMERELVAAISWSGGSTYYADSVKGRFTISRDNAENTVYLQMNSLKPEDTAVYYCAAEAEGSGREGNFYERSWYQGQGTQVTVSS
notes: as for B6
B15: 2LEC 67 (VHH)
VHH: QVQLQESGGGLVQAGGSLRLSCAASGRTFPGYVMAWFRQSPGQEREFAAAINWRGGDTYYADSVKGRFTISRDNVKNTVFLQMNSLKPEDTAVYFCAARLTTEYDYAYWGQGTQVTVSS
notes: as for B6
B16: 2LEC 83 (VHH)
VHH: QVQLQESGGGLVQAGGSLRLSCAASGRTLSSYTIGWYRQAPGKQRELVAAITNQGRRTYADSVKGRFTISRDNAKNTVYLQMDSLKSEDTAVYYCKGFSPTDDFWGQGTQVTVSS
notes: as for B6
B17: 1LEC 61 (VHH)
VHH: QVQLQESGGGLVQPGGSLRLSCAASGGISSINSMGWYRQAPGNQRELVAAITNGGRTVYGDSVKGRFTISRDSAGNTVHLQMDSLRPEDTGVYYCKAFTRGDDYWGQGTQVTVSS
notes: as for B6
B18: 2LEC 88 (VHH)
VHH: QVQLQESGGGLVQPGGSLRLSCTASGSFFSINAMGWYRQAPGNQRELVAAITNGGRIAYTDSVKGRFTISNDNAKNTVYLQMNSLKPEDTDVYYCNAKAIPIYGSTAEDYWGQGTQVTVSS
notes: as for B6
B19: 3LEC 62 (VHH)
VHH: QVQLQESGGGLVQPGGSLRLSCAASGRIGSINSMGWYRQAPGKQREMVAAITNGGATVYADSVKGRFTISRDNAGNTVDLHMNSLRPEDSAVYYCTIWAADYQQYWGQGTQVTVSS
notes: as for B6
B20: 1LEC 27 (VHH)
VHH: QVQLQESGGGLVQAGESLRLSCAASGSSDSINAMGWYRQAPGKQRELVAAITSGGRSTYIDSAKGRATISRDNARNTAYLQMSSLKAEDTAVYYCTIWNRDRQQYWGQGTQVTVSS
notes: as for B6
B21: 3LEC 13 (VHH)
VHH: QVQLQESGGGLVQPGGSLRLSCAASGRFFRVNAMGWYRQAPGKQRELVAAITNGGQIVYADSVKGRFTISRDSAKNTVYLQMNSLKSEDTAVYYCNAKAAASYVSTVADYWGQGTQVTVSS
notes: as for B6
B22: 2LEC 61 (VHH)
VHH: QVQLQESGGGLVQPGGSLRLSCAASGSIVSINSMGWYRQAPGKQRELVAAITDQGRTTYADSVKGRFTISRDDAKNKNTVYLQMNSLKAEDTAVYACKAFGRFDDYWGQGTQVTVSS
notes: as for B6
B23: 2LEC 62 (VHH)
VHH: QVQLQESGGGLVQPGGSLRLSCAAYGSIFSINAMGWYRQAPGKERELVAGITTQGRITYGNSVRGRFTISGDNAKNTVYLQMKSLKPEDTAVYYCSAWGVKTGPESGSGTLEGQGTQVTVSS
notes: as for B6
B24: 3LEC 22 (VHH)
VHH: QVQLQESGGGRVQPGGSLRLSCAAIGSIFEINSIGWYRQAPGKQRELVAAITSGGITNYANSVQGRSTISRDNVNNTVYLQMNSLKPEDSAVYYCKGFTGWGKEDYWGQGTQVTVSS
notes: as for B6
B25: 2LEC 95 (VHH)
VHH: QVQLQESGGGLVQAGGSLRLSCEASGRTFSTYAMAWFRQAPGKERDLVAAISWSGGSTEYHDSVKGRFTISRDNTKNTVYLQMNSLKAEDTAVYYCAAEVEGSGREGNFYGASWYPGQGTQVTVSS
notes: Entry includes C-terminal AAA-HA-His tag (pMECS); only five His are printed in the text
B26: 2LEC 89 (VHH)
VHH: QVQLQESGGGLVQAGGSLRLSCAASGSIFSINSMGWYRQAPGKQRELVAAITNGGRTTYADSVKGRFTISRDNAKNTVYLQMDSLKPEDTAVYYCKGFSLTDDYWGQGTQVTVSS
notes: as for B6
B27: 3LEC 4 (VHH)
VHH: QVQLQESGGGLVQPGGSLRLSCAASGSFFSINAMGWYRQAPGKQRELVAAITNQGRIAYADSVKGRFTISRDNAKNTVYLQMNSLKPEDTAVYYCGRPGWDYWGQGTQVTVSS
notes: as for B6
B28: 1LEC 26 (VHH)
VHH: QVQLQESGGGLVQPGGSLRLSCAASGRFFRVNAMGWYRQAPGKQRELVAAITNGGQTAYADSVKGRFTISKESARNTVHLQMSSLKPEDTAVYYCTIWAADYQQYWGQGTQVTVSS
notes: as for B6
B29: 3LEC 23 (VHH)
VHH: QVQLQESGGGLVQTGGSLRLSCAASGSIFNINSMGWYRQAPGKQRELVAAITVGGRLAYADSAKGRFTISKESARNTVHLQMSSLKPEDTAVYYCTIWAADYQQYWGQGTQVTVSS
notes: as for B6

T1 sequence (Q6UXN8 57-241 limits assumed): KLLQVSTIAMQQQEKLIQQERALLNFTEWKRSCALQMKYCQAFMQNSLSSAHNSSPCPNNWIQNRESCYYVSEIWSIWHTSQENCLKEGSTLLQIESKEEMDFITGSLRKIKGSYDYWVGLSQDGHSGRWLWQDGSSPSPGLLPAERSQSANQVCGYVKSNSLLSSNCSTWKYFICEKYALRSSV

The first assay concerns the target T1, biotinylated human CLEC9A (human, UniProt Q6UXN8 57-241, limits assumed, biotinylated (site not stated)).
T1 construct: Captured on a streptavidin sensor for BLI
Kind of assay: BLI (Octet), biotinylated human CLEC9A on streptavidin sensor, VHH at 50, 100 and 200 nM, global analysis. Here is the method:
Affinities of the AFN's for Clec9A were determined using the bio-layer interferometry technology on an Octet system (ForteBio).
(In general: In BLI a coated tip is dipped into the sample, and binding shifts an interference pattern.)
B1 showed a Kd of 1.72 nM, a koff of 0.000705 s⁻¹ and a kon of 410000 M⁻¹ s⁻¹.

B2 showed a Kd of 1.15 nM, a koff of 0.000723 s⁻¹ and a kon of 630000 M⁻¹ s⁻¹.

Take B3: the Kd was 1.29 nM, the koff worked out at 0.000635 s⁻¹ and the kon was determined as 492000 M⁻¹ s⁻¹.

Turning to B4, the Kd is 1.79 nM, the koff came to 0.000998 s⁻¹ and the kon was found to be 559000 M⁻¹ s⁻¹.

In turn, B5 gave a Kd of 2.7 nM, a koff of 0.00118 s⁻¹ and a kon of 438000 M⁻¹ s⁻¹.

A further assay deals with T2, human Clec9A (human, UniProt Q6UXN8 1-241).
T2 construct: Expressed on transfected CHO-K1, HEK293-T and HL116 cells, or native on human dendritic cells; also called hClec9A; C-type lectin domain family 9 member A
T2 sequence (Q6UXN8 whole entry, the tested form may be a part): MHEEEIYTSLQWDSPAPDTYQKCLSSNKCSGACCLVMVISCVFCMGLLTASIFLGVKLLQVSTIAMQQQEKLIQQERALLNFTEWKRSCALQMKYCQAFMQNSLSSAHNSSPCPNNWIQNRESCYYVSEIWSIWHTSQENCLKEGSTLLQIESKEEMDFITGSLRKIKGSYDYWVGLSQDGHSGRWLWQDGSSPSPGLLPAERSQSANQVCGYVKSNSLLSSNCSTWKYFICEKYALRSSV
The assay is described as follows: flow cytometry on HEK293-T cells transfected with human Clec9A; His-tagged VHH at 2 µg/ml, anti-His FITC antibody; single concentration. The procedure: The binding characteristics of various VHHs (as described in Example 1) were tested by flow cytometry. HEK293-T cells were transfected with a human Clec9A expression plasmid and stained with the His-tagged VHHs at 2 μg/ml, followed by staining with an anti-His Fitc conjugated antibody. Binding was measured by detecting cellular fluorescence via flow cytometry.
(In general: Flow cytometry measures light scatter and fluorescence of single cells or particles in a stream.)
Consider B6, for which the binding result is listed as “binds”.

Turning to B7, the binding result was “binds”.

As for B8, the binding result is given as “binds”.

As to B9, the binding result is on record as “binds”.

As to B10, the binding result is recorded as “binds”.

B11: the binding result is on record as “binds”.

Consider B12, for which the binding result is on record as “binds”.

B13: the binding result was “binds”.

Turning to B14, the binding result is “binds”.

Turning to B15, the binding result is “binds”.

As for B16, the binding result is “binds”.

In the case of B17, the binding result is reported as “binds”.

In the case of B18, the binding result is listed as “binds”.

With B19, the binding result is given as “binds”.

For the molecule B20, the binding result is recorded as “binds”.

For the molecule B21, the binding result is on record as “binds”.

On to B22, for which the binding result is on record as “binds”.

Regarding B23, the binding result was “binds”.

In the case of B24, the binding result is on record as “binds”.

Take B25: the binding result was “binds”.

B26: the binding result is on record as “binds”.

Turning to B27, the binding result was “binds”.

As to B28, the binding result is “binds”.

With B29, the binding result is “binds”.
